For test [1], the target named is T1, human LOX-1 expressed on the cell surface (human, UniProt P78380 1-273).
T1 construct: whole, on cells; also called CHO/LOX-1; CHO-LOX-1
In words: flow cytometry: CRP (0-200 ug/ml) on CHO/LOX-1 cells, 60 min at 4 C, rabbit anti-CRP and labelled secondary antibody, MFI. The protocol:
(§1) Cells were analyzed using a Becton Dickinson FACSCalibur® flow cytometer with CellQuest software (Becton Dickinson). Results are presented as the geometric mean fluorescence intensity (MFI).

Test [2] concerns the target T1, human LOX-1 expressed on the cell …. Description: flow cytometry, CRP on CHO/LOX-1 cells, detected with rabbit anti-CRP antibody; FACS on CHO/LOX-1 cells, 4 C. The method, then: as §1
Test [3] shares this target. In words: flow cytometry, CRP on LOX/CHO cells. The method, then: as §1
Test [4] deals with T2, recombinant mouse LOX-1 Fc protein (mouse, UniProt Q9EQ09 55-363, limits assumed).
T2 construct: The order Fc then LOX-1 is read from the label mFc-mLOX1; also called mFc-mLOX1; not shown: Fc part (label 'mFc')
T2 sequence (Q9EQ09 55-363 limits assumed): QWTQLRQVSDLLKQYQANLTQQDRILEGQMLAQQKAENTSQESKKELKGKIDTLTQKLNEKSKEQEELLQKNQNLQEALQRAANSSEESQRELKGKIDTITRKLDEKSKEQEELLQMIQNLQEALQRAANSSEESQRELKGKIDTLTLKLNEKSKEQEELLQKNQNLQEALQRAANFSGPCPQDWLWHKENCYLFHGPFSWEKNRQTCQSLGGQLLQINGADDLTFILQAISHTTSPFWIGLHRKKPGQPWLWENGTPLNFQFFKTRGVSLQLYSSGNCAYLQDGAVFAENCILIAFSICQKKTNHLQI
Description: AlphaScreen competition: antibody against Bio-oxLDL binding to mFc-mLOX1.

Test [5] addresses T2, recombinant mouse LOX-1 Fc protein. The test is described as above. This is another data set of the same source.
Test [6] has the same target. Description: AlphaScreen competition: antibody against Bio-CRP binding to mFc-mLOX1; Bio-CRP + mFc-mLOX1 competition, not Bio-oxLDL.
Test [7] shares this target. In words: AlphaScreen competition: antibody against Bio-CRP binding to mFc-mLOX1.

B1: purified recombinant human CRP (ligand, UniProt P02741 19-224, looked up)
chain: QTDMSRKAFVFPKESDTSYVSLKAPLTKPLKAFTVCLHFYTELSSTRGYSIFSYATKRQDNEILIFWSKDIGYSFTVGGSEILFEVPEVTVAPVHICTSWESASGIVEFWVDGKPRVRKSLKKGYTVGAEASIILGQEQDSFGGNFEGSQSLVGDIGNVNMWDFVLSPDEINTIYLGGPFSPNVLNWRALKYEVQGEVFTKPQLWP
modifications: biotin label in the AlphaScreen assays (biotin-CRP); unlabelled in ELISA and cell assays
notes: Bought protein; also called C-reactive protein; biotin-CRP
Regarding B1, the Kd in test [1] came out at 86.6 µg/mL; in test [2], 86 µg/mL; in test [3], 747 nM.

B2: LOX1-11A2 (antibody, V domains shown)
VH: EEQLVESGGGLVQPGGSLKLSCLASGFTLSNYGMNWIRQAPGKGLEWVASISSSSSYFYYADTVKGRFTISREDAKNTLNLQMTSLRSEDTALYYCARGITIAAGFTMDAWGQGTSVTVSS
VL: DIQMTQSPTSLSASLGETVSIECRASEDIYNNLAWYQQKSGKSPQLLIYYASTLQDGVPSRFSGSGSGTQFSLKISGMQPEDEGLYYCLQGSKYPRTFGGGTKLELKR
notes: Rat anti-mouse LOX-1 monoclonal antibody; also called rat anti-mouse LOX-1 antibody 11A2
With B2, the IC50 in test [4] and in test [5] was 0.127 µg/mL in each case.

B3: LOX1-33F1 (antibody, V domains shown)
VH: QVQLKESGPGLVQPSQTLSLTCTVSGFSLTSHAVNWVRQPPGKGLEWIGAIWSGGTTDYNSGFRSRLSISRDTSKSQVLLKMNSLQTEDTAMYFCARGYDGYYYYAMDVWGQGTSVTVSS
VL: DIVMTQSPSSLAVSAGETVTINCKSSQSLLSSRNQKNYLAWYQQKPGQSPKLLIYLASTRESGVPDRFIGSGSGTDFTLTITSVQAEDLADYYCQQHYNYYTFGAGTKLELKR
notes: Rat anti-mouse LOX-1 monoclonal antibody; also called rat anti-mouse LOX-1 antibody 33F1
In the case of B3, the IC50 was found to be 0.193 µg/mL in test [6], 0.193 µg/mL in test [7], 0.03 µg/mL in test [4] and 0.03 µg/mL in test [5].

(Values after patent US20090311271A1 (Pfizer, published 2009).)
